Laboratory results: publication PMC12095755 (Nature Communications, 2025)

Target: human MDM2 (Homo sapiens, UniProt Q00987)
Assay: MDM2 AlphaLISA competition assay
Assay type: binding
Settings: up to 50 µM

Sequence of human MDM2 (Q00987 whole entry): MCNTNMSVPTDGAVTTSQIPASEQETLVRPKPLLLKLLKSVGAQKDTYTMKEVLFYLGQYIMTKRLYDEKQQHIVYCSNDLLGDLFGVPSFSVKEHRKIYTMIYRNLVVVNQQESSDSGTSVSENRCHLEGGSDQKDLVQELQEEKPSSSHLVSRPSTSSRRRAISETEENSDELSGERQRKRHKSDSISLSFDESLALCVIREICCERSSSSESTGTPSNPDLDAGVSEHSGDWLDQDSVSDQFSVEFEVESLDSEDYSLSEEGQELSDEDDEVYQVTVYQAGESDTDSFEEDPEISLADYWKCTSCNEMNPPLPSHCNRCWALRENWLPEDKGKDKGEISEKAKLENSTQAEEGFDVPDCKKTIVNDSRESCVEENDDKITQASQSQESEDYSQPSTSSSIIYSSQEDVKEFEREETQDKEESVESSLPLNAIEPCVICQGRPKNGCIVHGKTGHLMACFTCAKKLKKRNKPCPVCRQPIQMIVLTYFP

## F-S-D-L-W (FSDLW) [p53 motif]
  activity in the AlphaLISA assay: no activity
